Laboratory results as given in publication doi:10.1101/2025.01.09.632221 (bioRxiv, 2025).
Values belong to the molecule of their own block, whether it stands above or below them.

Tests used:
[1] = molecular target: sHcp-His6 (Bacteroides fragilis NCTC9343); test: SDS-PAGE
[2] = molecular target: sHcp-His6 (Bacteroides fragilis NCTC9343); test: SEC
Hcp2-His6 = molecular target: T1, Hcp2-His6 (Bacteroides fragilis NCTC9343, UniProt A0A380Z0E1 1-135); test: pull-down
T1 sequence (looked up): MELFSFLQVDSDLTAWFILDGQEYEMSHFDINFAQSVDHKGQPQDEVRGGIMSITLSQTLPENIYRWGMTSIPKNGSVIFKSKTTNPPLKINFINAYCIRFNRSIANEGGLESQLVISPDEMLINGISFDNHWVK

crystal structure = molecular target: the molecule itself; test: crystal structure

stoichiometry N [1]: 3
stoichiometry N [2]: 6
Molecule: sHcp-His6 (natural protein)

stoichiometry N (Hcp2-His6): 2 Hcp1 per Hcp2 (printed as the ratio 4:2)
B1: Hcp1, untagged, co-expressed in E. coli BL21(DE3) (natural protein, Bacteroides fragilis NCTC9343, UniProt Q5LDT5 1-142, looked up)
chain: MFGHKSFLRIGALGDSSISGLYKDSYELENCHFSFNQGTNTDGKPQTDVRGGTLYLTYAGLPQDDMLRWILNSKKYEDGAIVICDDSDEPLEKILFEQAACTGLNIEYTQKGKAYIHTKIILQVRKIKVGETTFENRWTINE

B2: C-terminal 6His-tagged Se-Met sHcp protein (natural protein, Bacteroides fragilis NCTC9343)
chain: MAFRATLSFAGKEFDVLDCTYSLKRDVDSKGRPSSNIYGGQIRLHVESTDDTSILENMTNQFKPHSGSIVFKKGDEEAKMKELTWENGYITEFTENIDIVGSQPMTITFVVSAQVIKIGGAQFEQNWPK
modifications: selenomethionine in place of methionine
stoichiometry N (crystal structure): 6
